Measured values as given in US6887705B1, “Tyrosine phosphorylated cleavage furrow-associated proteins (PSTPIPs)” (Genentech, Inc., priority 1997, dated 2005).
Changes are numbered by the printed parent chain. In names and notes the source's numbering stands.

T1: PTP HSCF (Mus musculus, UniProt Q61152)
T1 construct: the PST (and C-terminal homolog) of PTP HSCF (amino acids 304-453); made in house; host or cells: E. coli DH5-alpha
T1 sequence (Q61152 304-453): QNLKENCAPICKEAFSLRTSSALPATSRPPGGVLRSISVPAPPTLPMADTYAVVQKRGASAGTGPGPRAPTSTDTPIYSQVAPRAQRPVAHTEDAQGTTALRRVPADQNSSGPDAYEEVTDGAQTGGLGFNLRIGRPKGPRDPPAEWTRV

B1: tryptophan at position 205: PST PIP with tryptophan 205 mutated to alanine (protein)
chain: MMAQLQFRDAFWCRDFTAHTGYEVLLQRLLDGRKMCKDVEELLRQRAQAEERYGKELVQIARKAGGQTEMNSLRTSFDSLKQQTENVGSAHIQLALALREELRSLEEFRERQKEQRKKYEAIMDRVQKSKLSLYKKTMESKKAYDQKCRDADDAEQAFERVSANGHQKQVEKSQNKAKQCKESATEAERVYRQNIEQLERARTEAEQEHRTTCEAFQLQEFDRLTILRNALWVHCNQLSMQCVKDDELYEEVRLTLEGCDVEGDINGFIQSKSTGREPPAPVPYQNYYDREVTPLIGSPSIQPSCGVIKRFSGLLHGSPKTTPSAPAASTETLTPTPERNELVYASIEVQATQGNLNSSAQDYRALYDYTAQNSDELDISAGDILAVILEGEDGWWTVERNGQRGFVPGSYLEKL
modifications: Mus Musculus
notes: PST PIP with tryptophan 205 mutated to alanine
B2: I122MD: PST PIP clustered alanine substitution starting at I122 (protein)
chain: MMAQLQFRDAFWCRDFTAHTGYEVLLQRLLDGRKMCKDVEELLRQRAQAEERYGKELVQIARKAGGQTEMNSLRTSFDSLKQQTENVGSAHIQLALALREELRSLEEFRERQKEQRKKYEAAAARVQKSKLSLYKKTMESKKAYDQKCRDADDAEQAFERVSANGHQKQVEKSQNKAKQCKESATEAERVYRQNIEQLERARTEWEQEHRTTCEAFQLQEFDRLTILRNALWVHCNQLSMQCVKDDELYEEVRLTLEGCDVEGDINGFIQSKSTGREPPAPVPYQNYYDREVTPLIGSPSIQPSCGVIKRFSGLLHGSPKTTPSAPAASTETLTPTPERNELVYASIEVQATQGNLNSSAQDYRALYDYTAQNSDELDISAGDILAVILEGEDGWWTVERNGQRGFVPGSYLEKLDYKDDDDK
B3: D145QK: PST PIP clustered alanine substitution starting at D145 (protein)
chain: B2 chain with A122I, A123M, A124D, D145A, Q146A, K147A
B4: D38VE: PST PIP clustered alanine substitution starting at D38 (protein)
chain: B2 chain with D38A, V39A, E40A, A122I, A123M, A124D
B5: F221: PST PIP with phenylalanine 221 mutated to alanine (protein)
chain: B2 chain with A122I, A123M, A124D, F221A
B6: L224: PST PIP with leucine 224 mutated to alanine (protein)
chain: B2 chain with A122I, A123M, A124D, L224A
B7: L133YK: PST PIP clustered alanine substitution starting at L133 (protein)
chain: B2 chain with A122I, A123M, A124D, L133A, Y134A, K135A
B8: R99EE: PST PIP clustered alanine substitution starting at R99 (protein)
chain: B2 chain with R99A, E100A, E101A, A122I, A123M, A124D
B9: N86VG: PST PIP clustered alanine substitution starting at N86 (protein)
chain: B2 chain with N86A, V87A, G88A, A122I, A123M, A124D
B10: R62K: PST PIP clustered alanine substitution starting at R62 (protein)
chain: B2 chain with R62A, K63A, A122I, A123M, A124D
B11: E110RQ: PST PIP clustered alanine substitution starting at E110 (protein)
chain: B2 chain with E110A, R111A, Q112A, A122I, A123M, A124D
B12: E50ER: PST PIP clustered alanine substitution starting at E50 (protein)
chain: B2 chain with E50A, E51A, R52A, A122I, A123M, A124D
B13: Q169VE: PST PIP clustered alanine substitution starting at Q169 (protein)
chain: B2 chain with A122I, A123M, A124D, Q169A, V170A, E171A
B14: E159RV: PST PIP clustered alanine substitution starting at E159 (protein)
chain: B2 chain with A122I, A123M, A124D, E159A, R160A, V161A

The molecules below were run against T1, PTP HSCF (assay: In vitro GST pull-down binding of PST PIP forms to PTP HSCF). Settings: in vitro.
Method: The binding was carried out according to the method of Wong and Johnson (Wong et al., J. Biol. Chem. 271(35):20981-20984 (1996)). Briefly, 1 μg of plasmid with either the PSTPIP protein or PTP HSCF under the control of the Sp6 promoter was in vitro transcribed/translated using the Promega™ TnT Rabbit Reticulocyte™ system. Samples were diluted in 50 mM HEPES, pH 7.2, 1% triton X 100, 10% glycerol, 100 mM NaCl, 5 mM EDTA and 2 μg/ml each of leupeptin, pepstatin, aprotinin, and PMSF. […] This was reacted for 1 hour at 4° C. and then the resin washed 6 times in HEPES/Triton binding buffer before SDS gel electrophoresis. The peptides were synthesized on an automated Milligen 9050 Peptide Synthesizer using standard solid phase chemistry with FMOC protected amino acids on a p-alkoxybenzyl alcohol resin. Dried peptides were re-suspended in the HEPES/Triton Binding buffer at a concentration of 10 mg/ml. Peptide inhibition was performed by adding the peptide first to the in vitro translation product and then the GST-fusion followed by the GSH-Sepharose. The binding/washing steps were as previously described. The peptides synthesized and the PTPs they were derived from were: • PXXP-HSCF: 432[…]451 (PTP HSCF) (SEQ ID NO:20), • PXXP-PEP: 782GFGNRFSKPKGPRNPPSAW800 (PTP PEP) (SEQ ID NO:21), • PXXP-PEST: 761[…]780 (PTP PEST) SEQ ID NO:22), • PXXP-CONTROL: 334[…]353 (PTP HSCF) (SEQ ID NO:23).
In vitro binding analyses between various PTP HSCF and PST PIP constructs were performed as previously described (Spencer et al, (1997), supra). Briefly, plasmids were transcribed and translated in vitro using the TnT Rabbit Reticulocyte Lysate System (Promega). Samples were diluted in 50 mM HEPES, pH 7.2, 1% triton X-100, 10% glycerol, 100 mM NaCl, and 2 μg/ml each of leupeptin, pepstatin, aprotinin and PMSF (lysis buffer). Samples were than reacted with GST fusion proteins at various concentrations, and the bound proteins were centrifuged using glutathione-sepharose beads and analyzed on SDS polyacrylamide gels. C-terminally-derived peptide inhibition studies were performed by incubating the GST fusion protein binding reactions in the presence of 10 μg/ml of the indicated peptides. Peptides were produced by FMOC-protected amino acids as previously described (Spencer et al, (1997), supra). In vivo interactions between various forms of PTP HSCF and PST PIP were also performed as previously described (Spencer et al, (1997), supra). Briefly, COS cells were transfected with various constructs, and after 48 hours, lysates were prepared and immunoprecipitated with antibodies to either the FLAG epitope contained at the C-terminus of PST PIP or an HA epitope contained at the N-terminus of PTP HSCF. The resultant blots were probed with anti-FLAG to detect PST PIP, anti-HA to detect PTP HSCF or anti-phosphotyrosine to detect levels of this modified amino acid in each protein.
“amino acids 1-264 of the coiled coil domain: form of PST PIP containing amino acids 1-264” was tested, and the “binding of in vitro translated PST PIP forms to GST fusion of C-terminal 149 amino acids of PTP HSCF” value (from here on “binding”) was “binding of PTP HSCF could be obtained”.
B1 was tested, and the “binding” value was “no effect on PTP HSCF binding was observed”.
With B2 the “binding” value was “either no or a minor change in the binding activity”.
B3 was tested, and the “binding” value was “either no or a minor change in the binding activity”.
In the case of B4, the “binding” value is reported as “either no or a minor change in the binding activity”.
In the case of B5, the “binding” value is reported as “no effect on PTP HSCF binding was observed”.
With B6 the “binding” value was “no effect on PTP HSCF binding was observed”.
For B7, the “binding” value was “either no or a minor change in the binding activity”.
With B8 the “binding” value was “either no or a minor change in the binding activity”.
In the case of B9, the “binding” value is reported as “either no or a minor change in the binding activity”.
B10 was tested, and the “binding” value was “either no or a minor change in the binding activity”.
In the case of B11, the “binding” value is reported as “either no or a minor change in the binding activity”.
With B12 the “binding” value was “either no or a minor change in the binding activity”.
B13 was tested, and the “binding” value was “either no or a minor change in the binding activity”.
B14 was tested, and the “binding” value was “either no or a minor change in the binding activity”.

Same assay, conditions: ~1 microgram per ml GST fusion protein
With “SH3 region: GST fusion containing the SH3 domain of PSTPIP” the “precipitation of in vitro translated PTP HSCF by GST fusions of PSTPIP or its domains” value was “not the SH3 region”.
For “coiled coil domain: GST fusion containing the coiled coil domain of PSTPIP”, the “precipitation of in vitro translated PTP HSCF by GST fusions of PSTPIP or its domains” value was “mediated by the coiled coil domain”.
